B1: Charged multivesicular body protein 7 (Homo sapiens), Q8WUX9 (parent)
chain: MWSPEREAEAPAGGDPAGLLPPEWEEDEERMSFLFSAFKRSREVNSTDWDSKMGFWAPLVLSHSRRQGVVRLRLRDLQEAFQRKGSVPLGLATVLQDLLRRGELQRESDFMASVDSSWISWGVGVFLLKPLKWTLSNMLGDNKVPAEEVLVAVELLKEKAEEVYRLYQNSPLSSHPVVALSELSTLCANSCPDERTFYLVLLQLQKEKRVTVLEQNGEKIVKFARGPRAKVSPVNDVDVGVYQLMQSEQLLSRKVESLSQEAERCKEEARRACRAGKKQLALRSLKAKQRTEKRIEALHAKLDTVQGILDRIYASQTDQMVFNAYQAGVGALKLSMKDVTVEKAESLVDQIQELCDTQDEVSQTLAGGVTNGLDFDSEELEKELDILLQDTTKEPLDLPDNPRNRHFTNSVPNPRISDAELEAELEKLSLSEGGLVPSSKSPKRQLEPTLKPL
partner: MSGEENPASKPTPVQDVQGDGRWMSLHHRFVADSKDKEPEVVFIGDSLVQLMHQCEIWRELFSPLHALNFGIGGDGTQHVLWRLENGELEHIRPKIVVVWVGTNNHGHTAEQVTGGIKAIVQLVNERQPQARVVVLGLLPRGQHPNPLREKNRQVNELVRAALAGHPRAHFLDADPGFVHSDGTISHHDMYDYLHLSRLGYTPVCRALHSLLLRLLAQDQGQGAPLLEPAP
B2: Zyxin (Homo sapiens), Q15942 (parent)
chain: MAAPRPSPAISVSVSAPAFYAPQKKFGPVVAPKPKVNPFRPGDSEPPPAPGAQRAQMGRVGEIPPPPPEDFPLPPPPLAGDGDDAEGALGGAFPPPPPPIEESFPPAPLEEEIFPSPPPPPEEEGGPEAPIPPPPQPREKVSSIDLEIDSLSSLLDDMTKNDPFKARVSSGYVPPPVATPFSSKSSTKPAAGGTAPLPPWKSPSSSQPLPQVPAPAQSQTQFHVQPQPQPKPQVQLHVQSQTQPVSLANTQPRGPPASSPAPAPKFSPVTPKFTPVASKFSPGAPGGSGSQPNQKLGHPEALSAGTGSPQPPSFTYAQQREKPRVQEKQHPVPPPAQNQNQVRSPGAPGPLTLKEVEELEQLTQQLMQDMEHPQRQNVAVNELCGRCHQPLARAQPAVRALGQLFHIACFTCHQCAQQLQGQQFYSLEGAPYCEGCYTDTLEKCNTCGEPITDRMLRATGKAYHPHCFTCVVCARPLEGTSFIVDQANRPHCVPDYHKQYAPRCSVCSEPIMPEPGRDETVRVVALDKNFHMKCYKCEDCGKPLSIEADDNGCFPLDGHVLCRKCHTARAQT
partner: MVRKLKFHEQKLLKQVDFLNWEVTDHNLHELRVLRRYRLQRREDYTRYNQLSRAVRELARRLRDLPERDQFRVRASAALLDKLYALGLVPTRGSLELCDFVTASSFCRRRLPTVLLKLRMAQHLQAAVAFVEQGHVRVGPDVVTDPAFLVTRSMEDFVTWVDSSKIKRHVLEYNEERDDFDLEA
B3: Notch homolog 2 N-terminal-like protein A (Homo sapiens), Q7Z3S9 (parent)
chain: MCVTYHNGTGYCKCPEGFLGEYCQHRDPCEKNRCQNGGTCVAQAMLGKATCRCASGFTGEDCQYSTSHPCFVSRPCLNGGTCHMLSRDTYECTCQVGFTGKECQWTDACLSHPCANGSTCTTVANQFSCKCLTGFTGQKCETDVNECDIPGHCQHGGTCLNLPGSYQCQCLQGFTGQYCDSLYVPCAPSPCVNGGTCRQTGDFTFECNCLPETVRRGTELWERDREVWNGKEHDEN
partner: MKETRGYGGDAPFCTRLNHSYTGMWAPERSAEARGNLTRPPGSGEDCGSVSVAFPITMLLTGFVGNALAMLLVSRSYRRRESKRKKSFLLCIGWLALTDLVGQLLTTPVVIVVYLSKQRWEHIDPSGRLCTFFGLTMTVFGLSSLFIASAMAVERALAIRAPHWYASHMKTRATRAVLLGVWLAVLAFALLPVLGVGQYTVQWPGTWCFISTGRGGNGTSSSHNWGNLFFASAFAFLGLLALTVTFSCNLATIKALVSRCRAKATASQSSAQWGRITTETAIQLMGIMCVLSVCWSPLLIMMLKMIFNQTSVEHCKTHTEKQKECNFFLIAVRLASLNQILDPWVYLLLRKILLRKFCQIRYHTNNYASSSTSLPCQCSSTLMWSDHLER
B4: Cysteine-rich C-terminal protein 1 (Homo sapiens), Q9UGL9 (parent)
chain: MSSQQSAVSAKGFSKGSSQGPAPCPAPAPTPAPASSSSCCGSGRGCCGDSGCCGSSSTSCCCFPRRRRRQRSSGCCCCGGGSQRSQRSNNRSSGCCSGC
B5: LIM/homeobox protein Lhx4 (Homo sapiens), Q969G2 (parent)
chain: MMQSATVPAEGAVKGLPEMLGVPMQQIPQCAGCNQHILDKFILKVLDRHWHSSCLKCADCQMQLADRCFSRAGSVYCKEDFFKRFGTKCTACQQGIPPTQVVRKAQDFVYHLHCFACIICNRQLATGDEFYLMEDGRLVCKEDYETAKQNDDSEAGAKRPRTTITAKQLETLKNAYKNSPKPARHVREQLSSETGLDMRVVQVWFQNRRAKEKRLKKDAGRHRWGQFYKSVKRSRGSSKQEKESSAEDCGVSDSELSFREDQILSELGHTNRIYGNVGDVTGGQLMNGSFSMDGTGQSYQDLRDGSPYGIPQSPSSISSLPSHAPLLNGLDYTVDSNLGIIAHAGQGVSQTLRAMAGGPTSDISTGSSVGYPDFPTSPGSWLDEMDHPPF
partner: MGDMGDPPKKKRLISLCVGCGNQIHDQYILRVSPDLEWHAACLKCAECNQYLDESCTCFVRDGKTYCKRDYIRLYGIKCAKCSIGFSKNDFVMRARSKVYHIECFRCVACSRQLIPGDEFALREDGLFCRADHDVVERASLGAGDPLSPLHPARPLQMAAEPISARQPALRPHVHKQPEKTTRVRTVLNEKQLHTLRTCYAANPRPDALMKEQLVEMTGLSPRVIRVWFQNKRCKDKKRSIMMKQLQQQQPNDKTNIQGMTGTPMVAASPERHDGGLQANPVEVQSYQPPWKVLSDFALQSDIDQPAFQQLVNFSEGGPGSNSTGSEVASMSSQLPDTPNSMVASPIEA
B6: Transcription factor 12 (Homo sapiens), Q99081 (parent)
chain: MNPQQQRMAAIGTDKELSDLLDFSAMFSPPVNSGKTRPTTLGSSQFSGSGIDERGGTTSWGTSGQPSPSYDSSRGFTDSPHYSDHLNDSRLGAHEGLSPTPFMNSNLMGKTSERGSFSLYSRDTGLPGCQSSLLRQDLGLGSPAQLSSSGKPGTAYYSFSATSSRRRPLHDSAALDPLQAKKVRKVPPGLPSSVYAPSPNSDDFNRESPSYPSPKPPTSMFASTFFMQDGTHNSSDLWSSSNGMSQPGFGGILGTSTSHMSQSSSYGNLHSHDRLSYPPHSVSPTDINTSLPPMSSFHRGSTSSSPYVAASHTPPINGSDSILGTRGNAAGSSQTGDALGKALASIYSPDHTSSSFPSNPSTPVGSPSPLTGTSQWPRPGGQAPSSPSYENSLHSLQSRMEDRLDRLDDAIHVLRNHAVGPSTSLPAGHSDIHSLLGPSHNAPIGSLNSNYGGSSLVASSRSASMVGTHREDSVSLNGNHSVLSSTVTTSSTDLNHKTQENYRGGLQSQSGTVVTTEIKTENKEKDENLHEPPSSDDMKSDDESSQKDIKVSSRGRTSSTNEDEDLNPEQKIEREKERRMANNARERLRVRDINEAFKELGRMCQLHLKSEKPQTKLLILHQAVAVILSLEQQVRERNLNPKAACLKRREEEKVSAVSAEPPTTLPGTHPGLSETTNPMGHM
partner: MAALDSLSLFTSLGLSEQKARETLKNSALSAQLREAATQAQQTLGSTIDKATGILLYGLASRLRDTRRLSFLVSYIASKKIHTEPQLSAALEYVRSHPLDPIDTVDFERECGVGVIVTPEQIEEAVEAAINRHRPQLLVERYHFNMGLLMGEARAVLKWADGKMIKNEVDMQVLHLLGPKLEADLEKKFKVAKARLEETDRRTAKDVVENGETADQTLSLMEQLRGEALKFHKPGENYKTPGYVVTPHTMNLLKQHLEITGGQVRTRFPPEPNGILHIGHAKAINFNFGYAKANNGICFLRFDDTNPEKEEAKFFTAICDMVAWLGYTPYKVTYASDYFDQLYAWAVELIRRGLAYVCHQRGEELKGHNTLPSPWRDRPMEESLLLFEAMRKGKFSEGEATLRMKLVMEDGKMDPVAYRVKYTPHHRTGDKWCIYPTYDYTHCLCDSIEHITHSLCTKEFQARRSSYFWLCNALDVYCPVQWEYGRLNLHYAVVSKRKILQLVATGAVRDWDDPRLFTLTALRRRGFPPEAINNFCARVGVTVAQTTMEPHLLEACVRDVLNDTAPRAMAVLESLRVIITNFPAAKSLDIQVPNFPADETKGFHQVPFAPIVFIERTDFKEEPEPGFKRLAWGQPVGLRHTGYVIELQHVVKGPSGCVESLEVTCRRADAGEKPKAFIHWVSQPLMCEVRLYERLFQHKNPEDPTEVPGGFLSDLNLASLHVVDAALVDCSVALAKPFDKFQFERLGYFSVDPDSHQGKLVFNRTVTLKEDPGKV
B7: UPF0462 protein C4orf33 (Homo sapiens), Q8N1A6 (parent)
chain: MDFKIEHTWDGFPVKHEPVFIRLNPGDRGVMMDISAPFFRDPPAPLGEPGKPFNELWDYEVVEAFFLNDITEQYLEVELCPHGQHLVLLLSGRRNVWKQELPLSFRMSRGETKWEGKAYLPWSYFPPNVTKFNSFAIHGSKDKRSYEALYPVPQHELQQGQKPDFHCLEYFKSFNFNTLLGEEWKQPESDLWLIEKCDI
B8: Cytosolic 5'-nucleotidase 1A (Homo sapiens), Q9BXI3 (parent)
chain: MEPGQPREPQEPREPGPGAETAAAPVWEEAKIFYDNLAPKKKPKSPKPQNAVTIAVSSRALFRMDEEQQIYTEQGVEEYVRYQLEHENEPFSPGPAFPFVKALEAVNRRLRELYPDSEDVFDIVLMTNNHAQVGVRLINSINHYDLFIERFCMTGGNSPICYLKAYHTNLYLSADAEKVREAIDEGIAAATIFSPSRDVVVSQSQLRVAFDGDAVLFSDESERIVKAHGLDRFFEHEKAHENKPLAQGPLKGFLEALGRLQKKFYSKGLRLECPIRTYLVTARSAASSGARALKTLRSWGLETDEALFLAGAPKGPLLEKIRPHIFFDDQMFHVAGAQEMGTVAAHVPYGVAQTPRRTAPAKQAPSAQ
B9: Paraneoplastic antigen-like protein 5 (Homo sapiens), Q96PV4 (parent)
chain: MALTLLEDWCKGMDMDPRKALLIVGIPMECSEVEIQDTVKAGLQPLCAYRVLGRMFRREDNAKAVFIELADTVNYTTLPSHIPGKGGSWEVVVKPRNPDDEFLSRLNYFLKDEGRSMTDVARALGCCSLPAESLDAEVMPQVRSPPLEPPKESMWYRKLKVFSGTASPSPGEETFEDWLEQVTEIMPIWQVSEVEKRRRLLESLRGPALSIMRVLQANNDSITVEQCLDALKQIFGDKEDFRASQFRFLQTSPKIGEKVSTFLLRLEPLLQKAVHKSPLSVRSTDMIRLKHLLARVAMTPALRGKLELLDQRGCPPNFLELMKLIRDEEEWENTEAVMKNKEKPSGRGRGASGRQARAEASVSAPQATVQARSFSDSSPQTIQGGLPPLVKRRRLLGSESTRGEDHGQATYPKAENQTPGREGPQAAGEELGNEAGAGAMSHPKPWET

Variants of: B1
Conditions: with pa1b3_human PAFAH1B3, Q15102

effect of a mutation on the interaction | Variant
with no effect | R228C

Variants of: B2
Conditions: with imp3_human IMP3, Q9NV31

effect of a mutation on the interaction | Variant
with no effect | R563Q
with no effect | R489W

Variants of: B3
Conditions: with pe2r3_human PTGER3, P43115

effect of a mutation on the interaction | Variant
with no effect | R74Q
with no effect | A115T

Variants of: B4
Conditions: with nt2na_human NOTCH2NLA

effect of a mutation on the interaction | Variant
with no effect | G20S

Variants of: B5
Conditions: with isl1_human ISL1, P61371

effect of a mutation on the interaction | Variant
with no effect | N328S

Variants of: B6
Conditions: with syq_human QARS1, P47897

effect of a mutation on the interaction | Variant
with no effect | D565V
with no effect | N479S
with no effect | L483R
with no effect | G300S
with no effect | I11M
with no effect | A458V

Variants of: B7
Conditions: with vac14_human VAC14, Q08AM6
Sequence of vac14_human VAC14, Q08AM6 (Q08AM6 whole entry): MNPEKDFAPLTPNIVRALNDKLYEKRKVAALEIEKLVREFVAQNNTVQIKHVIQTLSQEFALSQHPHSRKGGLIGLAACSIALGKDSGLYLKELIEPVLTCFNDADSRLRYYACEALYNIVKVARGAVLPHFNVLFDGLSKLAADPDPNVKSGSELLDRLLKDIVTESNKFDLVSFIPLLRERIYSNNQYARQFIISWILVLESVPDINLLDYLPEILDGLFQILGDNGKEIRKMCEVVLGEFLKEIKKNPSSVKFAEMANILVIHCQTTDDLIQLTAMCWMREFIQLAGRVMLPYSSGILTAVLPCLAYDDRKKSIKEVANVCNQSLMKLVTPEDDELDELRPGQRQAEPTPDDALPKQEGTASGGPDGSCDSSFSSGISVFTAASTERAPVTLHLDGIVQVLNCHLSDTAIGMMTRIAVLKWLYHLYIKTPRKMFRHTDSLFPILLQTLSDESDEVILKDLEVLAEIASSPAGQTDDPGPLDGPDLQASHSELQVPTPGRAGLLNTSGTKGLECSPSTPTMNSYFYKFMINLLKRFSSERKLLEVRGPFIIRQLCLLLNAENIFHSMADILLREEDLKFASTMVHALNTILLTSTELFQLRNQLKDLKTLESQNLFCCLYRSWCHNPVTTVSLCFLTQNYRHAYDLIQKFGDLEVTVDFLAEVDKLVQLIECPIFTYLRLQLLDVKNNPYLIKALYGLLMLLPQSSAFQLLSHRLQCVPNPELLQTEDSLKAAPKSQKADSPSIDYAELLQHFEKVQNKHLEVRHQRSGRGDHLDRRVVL

effect of a mutation on the interaction | Variant
with no effect | H166R

Variants of: B8
Conditions: with ntaq1_human NTAQ1, Q96HA8

effect of a mutation on the interaction | Variant
with no effect | Y34C

Variants of: B9
Conditions: with arpc4_human ARPC4, P59998

effect of a mutation on the interaction | Variant
disrupting interaction strength | L21Q
with no effect | R312Q

Variants of: B9
Conditions: with zfy26_human ZFYVE26, Q68DK2
Sequence of zfy26_human ZFYVE26, Q68DK2 (Q68DK2 whole entry): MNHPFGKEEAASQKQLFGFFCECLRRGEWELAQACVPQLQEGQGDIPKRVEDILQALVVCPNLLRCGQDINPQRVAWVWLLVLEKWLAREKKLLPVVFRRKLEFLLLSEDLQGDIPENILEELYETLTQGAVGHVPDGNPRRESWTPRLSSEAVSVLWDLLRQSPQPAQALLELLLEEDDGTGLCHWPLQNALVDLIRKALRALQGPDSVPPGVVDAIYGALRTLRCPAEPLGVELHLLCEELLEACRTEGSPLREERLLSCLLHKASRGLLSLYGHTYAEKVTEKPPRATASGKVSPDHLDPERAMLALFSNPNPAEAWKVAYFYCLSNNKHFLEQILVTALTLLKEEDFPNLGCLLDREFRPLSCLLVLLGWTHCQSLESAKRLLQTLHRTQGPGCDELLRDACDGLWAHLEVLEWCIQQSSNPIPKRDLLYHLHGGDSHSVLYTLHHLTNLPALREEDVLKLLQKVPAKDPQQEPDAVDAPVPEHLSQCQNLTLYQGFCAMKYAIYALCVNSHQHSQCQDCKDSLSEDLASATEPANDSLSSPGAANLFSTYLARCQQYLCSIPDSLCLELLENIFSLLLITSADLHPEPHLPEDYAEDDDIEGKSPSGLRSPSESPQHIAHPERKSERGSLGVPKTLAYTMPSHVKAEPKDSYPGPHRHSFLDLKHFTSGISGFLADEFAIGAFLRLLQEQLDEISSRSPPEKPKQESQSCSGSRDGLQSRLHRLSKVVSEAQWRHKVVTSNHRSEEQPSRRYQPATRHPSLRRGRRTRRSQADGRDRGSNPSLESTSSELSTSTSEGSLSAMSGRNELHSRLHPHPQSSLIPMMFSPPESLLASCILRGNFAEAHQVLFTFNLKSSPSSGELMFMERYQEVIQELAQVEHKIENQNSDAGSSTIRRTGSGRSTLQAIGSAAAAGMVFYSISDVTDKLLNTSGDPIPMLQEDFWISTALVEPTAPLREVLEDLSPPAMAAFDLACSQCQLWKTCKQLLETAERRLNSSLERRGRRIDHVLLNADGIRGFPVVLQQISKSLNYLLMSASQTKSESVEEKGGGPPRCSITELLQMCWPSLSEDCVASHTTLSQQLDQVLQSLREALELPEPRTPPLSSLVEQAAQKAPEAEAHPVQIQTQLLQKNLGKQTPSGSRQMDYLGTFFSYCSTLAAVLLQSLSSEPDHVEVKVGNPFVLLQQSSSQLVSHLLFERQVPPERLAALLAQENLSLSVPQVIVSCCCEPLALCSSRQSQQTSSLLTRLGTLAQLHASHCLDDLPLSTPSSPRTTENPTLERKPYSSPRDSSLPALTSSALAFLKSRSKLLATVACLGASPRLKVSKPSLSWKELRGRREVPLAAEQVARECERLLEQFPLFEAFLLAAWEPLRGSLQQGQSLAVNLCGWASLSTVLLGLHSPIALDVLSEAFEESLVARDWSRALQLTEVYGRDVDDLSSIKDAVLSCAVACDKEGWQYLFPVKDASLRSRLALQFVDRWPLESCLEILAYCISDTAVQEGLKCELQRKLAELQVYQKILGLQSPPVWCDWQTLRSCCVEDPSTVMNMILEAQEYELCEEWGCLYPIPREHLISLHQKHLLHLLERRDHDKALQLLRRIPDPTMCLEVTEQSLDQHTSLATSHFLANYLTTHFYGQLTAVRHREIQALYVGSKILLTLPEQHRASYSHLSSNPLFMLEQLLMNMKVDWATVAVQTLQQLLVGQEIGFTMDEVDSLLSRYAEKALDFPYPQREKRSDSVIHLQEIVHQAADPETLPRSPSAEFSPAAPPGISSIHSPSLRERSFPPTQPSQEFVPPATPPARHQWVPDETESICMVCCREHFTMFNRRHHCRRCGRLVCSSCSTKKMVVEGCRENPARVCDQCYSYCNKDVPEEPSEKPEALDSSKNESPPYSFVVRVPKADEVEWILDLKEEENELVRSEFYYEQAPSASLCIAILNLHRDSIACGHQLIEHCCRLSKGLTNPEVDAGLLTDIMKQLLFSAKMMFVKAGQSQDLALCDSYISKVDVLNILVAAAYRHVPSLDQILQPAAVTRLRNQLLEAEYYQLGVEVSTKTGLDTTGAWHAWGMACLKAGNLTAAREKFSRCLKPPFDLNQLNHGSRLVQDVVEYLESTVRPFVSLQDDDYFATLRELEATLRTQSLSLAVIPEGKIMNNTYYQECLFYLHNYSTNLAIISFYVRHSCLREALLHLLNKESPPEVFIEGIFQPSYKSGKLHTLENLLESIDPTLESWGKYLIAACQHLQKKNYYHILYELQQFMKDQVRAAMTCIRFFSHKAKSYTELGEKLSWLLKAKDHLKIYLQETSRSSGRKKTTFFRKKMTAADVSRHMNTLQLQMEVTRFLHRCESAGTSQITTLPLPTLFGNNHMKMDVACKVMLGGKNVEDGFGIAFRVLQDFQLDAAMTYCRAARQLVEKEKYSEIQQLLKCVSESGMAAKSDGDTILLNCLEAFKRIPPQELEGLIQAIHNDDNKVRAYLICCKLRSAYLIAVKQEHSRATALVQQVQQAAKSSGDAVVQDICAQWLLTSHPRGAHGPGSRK

effect of a mutation on the interaction | Variant
disrupting interaction strength | L21Q
with no effect | R312Q

Variants of: B9
Conditions: with ccnc_human CCNC

effect of a mutation on the interaction | Variant
disrupting interaction strength | L21Q
with no effect | R312Q

Variants of: B9
Conditions: with aapk1_human PRKAA1, Q13131
Sequence of aapk1_human PRKAA1, Q13131 (Q13131 whole entry, looked up): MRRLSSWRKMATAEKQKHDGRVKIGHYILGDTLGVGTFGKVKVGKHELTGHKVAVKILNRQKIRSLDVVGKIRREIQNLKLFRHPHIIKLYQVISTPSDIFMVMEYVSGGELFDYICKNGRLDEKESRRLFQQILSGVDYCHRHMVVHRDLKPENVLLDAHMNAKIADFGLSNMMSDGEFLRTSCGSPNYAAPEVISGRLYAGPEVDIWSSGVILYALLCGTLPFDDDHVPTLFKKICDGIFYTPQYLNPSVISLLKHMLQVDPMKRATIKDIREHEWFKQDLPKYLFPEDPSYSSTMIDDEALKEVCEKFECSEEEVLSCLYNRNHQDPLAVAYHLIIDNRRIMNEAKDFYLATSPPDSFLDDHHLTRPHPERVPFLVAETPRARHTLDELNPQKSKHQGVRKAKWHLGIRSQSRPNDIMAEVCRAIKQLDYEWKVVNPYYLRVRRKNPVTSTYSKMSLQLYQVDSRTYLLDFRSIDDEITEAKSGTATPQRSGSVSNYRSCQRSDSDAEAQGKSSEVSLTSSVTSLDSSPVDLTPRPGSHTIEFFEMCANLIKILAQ

effect of a mutation on the interaction | Variant
disrupting interaction strength | L21Q
with no effect | R312Q
